One data set concerns CYV-VP3 (Culex Y virus). Nature of the data set: competition.
Data set [1] concerns the target T1, DCV-1A (Drosophila C virus, UniProt O36966 1-97).
T1 sequence: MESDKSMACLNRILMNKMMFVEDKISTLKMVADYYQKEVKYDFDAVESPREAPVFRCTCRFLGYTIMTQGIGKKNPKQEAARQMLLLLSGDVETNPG
Nature of the data set: single-molecule TIRF.

The target in a further data set is T2, DXV-VP3 (Drosophila X virus, UniProt Q96724 724-1032).
T2 sequence: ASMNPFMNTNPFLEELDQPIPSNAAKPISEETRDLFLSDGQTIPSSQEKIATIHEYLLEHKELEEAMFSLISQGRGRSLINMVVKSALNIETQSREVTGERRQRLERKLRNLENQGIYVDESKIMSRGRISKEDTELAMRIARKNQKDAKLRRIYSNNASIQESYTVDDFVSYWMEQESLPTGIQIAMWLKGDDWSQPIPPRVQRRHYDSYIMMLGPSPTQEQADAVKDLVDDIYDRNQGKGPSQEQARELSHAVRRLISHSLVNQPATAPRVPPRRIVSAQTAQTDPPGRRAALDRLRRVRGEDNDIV
In words: single-molecule TIRF.

The next data set deals with Dcr-2;Loqs-PD (LqPD) (Drosophila melanogaster?;Drosophila …, UniProt A1ZAW0;Q9VJY9-4 1-1722;1-359, |). Nature of the data set: single-molecule TIRF.
For data set [2], the target named is T1, DCV-1A. In words: single-molecule TIRF. This is another data set of the same source.
The target in data set [3] is T1, DCV-1A. Nature of the data set: single-molecule TIRF. The source holds these as a separate data set.

Like-named read-outs stand apart in the source and are kept apart here.

Turning to “GGCAAUGAAAGAUCGCGGGUCUGCUCAAACACUCCGUUAUGUAGCAUUCCUUGAUCGUGAGAUUCUUCUU / AAGAAGAAUCUCACGAUCAAGGAAUGCUACAUAACGGAGUGUUUGAGCAGACCCGCGAUCUUUCAUUGCC [70-nt dsRNA blunt end]”, in the data set on CYV-VP3 (Culex Y virus), the binding signal amounted to 80 % inhibition.

B1: 50-nt dsRNA (structured_RNA)
RNA: GGGACCUCAUCCAACAUAUCAAACUCCAUCAUCCAACAUAUCAAACUCCAGUCGAGUGGAGUUUGAUAUGUUGGAUGAUGGAGUUUGAUAUGUUGGAUGAGGUCCCAA
As for B1, the binding result with DCV-1A [1] and in the data set with DXV-VP3 was “binds” throughout.

B2: 70-nt dsRNA blunt end (dsRNA)
RNA 1: GGCAAUGAAAGAUCGCGGGUCUGCUCAAACACUCCGUUAUGUAGCAUUCCUUGAUCGUGAGAUUCUUCUU
RNA 2: AAGAAGAAUCUCACGAUCAAGGAAUGCUACAUAACGGAGUGUUUGAGCAGACCCGCGAUCUUUCAUUGCC
Regarding B2, the binding result in the data set with Dcr-2;Loqs-PD (LqPD) was “binds”.

B3: pre-let-7a-1 (2 mismatches) (structured_RNA)
RNA: UGAGGUAGUAGGUUGUAUAGUUUUAGGGUCACACCCACCACUGGGAGAUAACUAUACAAUCUACUGUCUUUCU
With B3, the binding result in the data set with DCV-1A [2] is recorded as “binds”.

B4: pre-miRNA (no mismatches) (structured_RNA)
RNA: UGAGACAGUAGGUUGUAUAGUUUUAGGGUCACACCCACCACUGGGAGAUAACUAUACAAUCUACUGUCUUUCU
Consider B4, for which the binding result in the data set with DCV-1A [3] is “binds”.

Values taken from article PMC5888754.
